What was measured:
Experiment in all cases: yeast interaction trap (two-hybrid), LexAop-lacZ reporter pJK103 in EGY48, galactose medium
[1] = target: LexA-Cdc2 (Hs) bait protein (human) (UniProt P06493)
[2] = target: LexA-Cdc28 (Sc) bait protein (S. cerevisiae) (UniProt P00546)
[3] = target: LexA-Cdc2c (Dm) bait protein (Drosophila) (UniProt P23573)
[4] = target: LexA-Cdc2 (Dm) bait protein (Drosophila) (UniProt P23572)
[5] = target: LexA-Fus3 (Sc) bait protein (S. cerevisiae) (UniProt P16892)
[6] = target: LexA-Cdk2 (Hs) bait protein (human) (UniProt P24941)

β-Galactosidase Activity (β-galactosidase units) [1]: 1580 | β-Galactosidase Activity (β-galactosidase units) [2]: 480 | β-Galactosidase Activity (β-galactosidase units) [3]: > 2 | β-Galactosidase Activity (β-galactosidase units) [4]: 40 | β-Galactosidase Activity (β-galactosidase units) [5]: > 2 | β-Galactosidase Activity (β-galactosidase units) [6]: 440
Substance: tagged Cdi1 (activation-tagged prey fusion expressed from library plasmid pJG4-5)
